These results are taken from publication PMC10184913.

Substrate in this series: O=C(O)/C=C/c1ccccc1
As to the kind of experiment: cells, lysate or membranes. The settings on record: 1 mM NADPH, 50 mM phosphate pH 7.6, 25°C, co-expressed LjCPR1.

B1: GmC4H14 (Glycine max) (protein)
chain: MDLLLLEKTLIGLFLAAVVAIAVSTLRGRKFKLPPGPLPVPIFGNWLQVGDDLNHRNLTDLAKKFGDIFLLRMGQRNLVVVSSPELAKEVLHTQGVEFGSRTRNVVFDIFTGKGQDMVFTVYGEHWRKMRRIMTVPFFTNKVVQQYRHGWESEAAAVVEDVKNNPDAAVSGTVIRRRLQLMMYNNMYRIMFDRRFESEEDPIFQRLRALNGERSRLAQSFEYNYGDFIPILRPFLKGYLKICKEVKETRLKLFKDYFVDERKKLGSIKSSNNNELKCAIDHILDAQRKGEINEDNVLYIVENINVAAIETTLWSIEWGIAELVNHPEIQQKVRDEIDRVLEAGHQVTEPDIQKLPYLQAVVKETLRLRMAIPLLVPHMNLHDAKLGGYDIPAESKILVNAWWLANNPAHWKKPEEFRPERFLEEELHVEANGNDFRYLPFGVGRRSCPGIILALPILAITLGRLVQNFELLPPPGQSQIDTSEKGGQFSLHILKHSTIVAKPRSF
The term Km denotes the concentration of substrate that gives half-maximal velocity. As to B1, the Km was 2.74 ± 0.18 µM.

B2: GmC4H2 (Glycine max) (protein)
chain: MDLLLLEKTLIGLFLAAVVAIAVSTLRGRKFKLPPGPLPVPIFGNWLQVGDDLNHRNLTDLAKKFGDIFLLRMGQRNLVVVSSPELAKEVLHTQGVEFGSRTRNVVFDIFTGKGQDMVFTVYGEHWRKMRRIMTVPFFTNKVVQQYRHGWESEAAAVVEDVKKNPDAAVSGTVIRRRLQLMMYNNMYRIMFDRRFESEEDPIFQRLRALNGERSRLAQSFEYNYGDFIPILRPFLKGYLKICKEVKETRLKLFKDYFVDERKKLGSTKSTNNNNELKCAIDHILDAQRKGEINEDNVLYIVENINVAAIETTLWSIEWGIAELVNHPEIQQKLRDEIDRVLGAGHQVTEPDIQKLPYLQAVVKETLRLRMAIPLLVPHMNLHDAKLGGYDIPAESKILVNAWWLANNPAHWKKPEEFRPERFFEEESLVEANGNDFRYLPFGVGRRSCPGIILALPILGITLGRLVQNFELLPPPGQSQIDTSEKGGQFSLHILKHSTIVAKPRSF
In the case of B2, the Km came out at 6.438 ± 0.74 µM.

B3: GmC4H20 (Glycine max) (protein)
chain: MGLQIKEPLLFTLVTISLISITKLLHSYFSIPFSPSNLSIAIATLIFVLISYKFSSSSIKHSSTTLPPGPLSVPIFGNWLQVGNDLNHRLLASMSQTYGPVFLLKLGSKNLVVVSDPELATQVLHAQGVEFGSRPRNVVFDIFTGNGQDMVFTVYGDHWRKMRRIMTLPFFTNKVVHNYSNMWEEEMDLVVRDLNVNERVRSEGIVIRRRLQLMLYNIMYRMMFDAKFESQEDPLFIQATRFNSERSRLAQSFEYNYGDFIPLLRPFLRGYLNKCKDLQSRRLAFFNTHYVEKRRQIMAANGEKHKISCAMDHIIDAQMKGEISEENVIYIVENINVAAIETTLWSIEWAVAELVNHPTVQSKIRDEISKVLKGEPVTESNLHELPYLQATVKETLRLHTPIPLLVPHMNLEEAKLGGHTVPKESKVVVNAWWLANNPSWWKNPEEFRPERFLEEECATDAVAGGKVDFRFVPFGVGRRSCPGIILALPILGLVIAKLVKSFQMSAPAGTKIDVSEKGGQFSLHIANHSTVLFHPIKTL
As to B3, the Km was determined as 3.83 ± 0.44 µM.
